Article PMC8499050 (Blood, 2021)

T1: EGR-chloromethylketone active-site inhibited des-(Gla-EGF1) FXa (Homo sapiens, EGR-chloromethylketone in the active site)
T1 chain 1: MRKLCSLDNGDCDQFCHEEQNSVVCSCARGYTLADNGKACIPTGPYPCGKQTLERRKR
T1 chain 2: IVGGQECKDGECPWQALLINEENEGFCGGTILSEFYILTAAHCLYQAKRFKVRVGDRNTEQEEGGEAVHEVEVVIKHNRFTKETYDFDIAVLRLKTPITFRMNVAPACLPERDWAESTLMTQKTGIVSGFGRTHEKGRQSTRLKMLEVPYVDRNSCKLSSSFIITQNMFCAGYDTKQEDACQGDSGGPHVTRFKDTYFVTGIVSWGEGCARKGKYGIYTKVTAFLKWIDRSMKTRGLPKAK

B1: Mim8 anti-FIXa Fab fragment (Fab, V domains shown)
VH: EVQLVESGGGLVQPGRSLRLSCAASGFTFHDYAMHWVRQVPGKGLEWVSGISWRGDIGGYVKSVKGRFTISRDNAKNSLYLQMNSLRAEDTALYYCVKSYGSGSFYNAFDSWGQGTLVTVSS
VL: DIQMTQSPSTLSASVGDRVTITCRASQSISSWLAWYQQKPGKAPKFLIYKASKLERGTPSRFSGSGDGTEFSLTISSLQPDDFATYYCLEYSSYIRTFGQGTKVEIK
B2: Mim8 anti-FX Fab fragment (Fab, V domains shown)
VH: EVQLVQSGAEVKKPGESLRISCKGSGYSFSTSWIVWVRQMPGKGLEWMGMIDPSDSFTSYSPSFQGHVTISADKSISTAYLQWSSLKASDTAMYYCARLHYYNSEEFDVWGQGTLVTVSS
VL: EIVLTQSPGTLSLSPGERATLSCRASQSVSSSYLAWYQQKPGQAPRLLIYGQSSRTRGIPDRFSGSGSGTDFTLTISRLEPEDFAVYYCQQFGDSQLFTFGQGTKLEIK

How the values were obtained:
[1] = target: EGR-chloromethylketone active-site inhibited des-(Gla-EGF1) FIXa (Homo sapiens, EGR-chloromethylketone in the active site); assay: crystal structure
[2] = target: T1, EGR-chloromethylketone active-site …; assay: crystal structure

Binder	binding result [1]	binding result [2]
B1	binds	
B2		binds
